Measurements as given in US20170306346.

Target: GST-MYC2-HA (UniProt Q39204)
Sequence (Q39204 whole entry): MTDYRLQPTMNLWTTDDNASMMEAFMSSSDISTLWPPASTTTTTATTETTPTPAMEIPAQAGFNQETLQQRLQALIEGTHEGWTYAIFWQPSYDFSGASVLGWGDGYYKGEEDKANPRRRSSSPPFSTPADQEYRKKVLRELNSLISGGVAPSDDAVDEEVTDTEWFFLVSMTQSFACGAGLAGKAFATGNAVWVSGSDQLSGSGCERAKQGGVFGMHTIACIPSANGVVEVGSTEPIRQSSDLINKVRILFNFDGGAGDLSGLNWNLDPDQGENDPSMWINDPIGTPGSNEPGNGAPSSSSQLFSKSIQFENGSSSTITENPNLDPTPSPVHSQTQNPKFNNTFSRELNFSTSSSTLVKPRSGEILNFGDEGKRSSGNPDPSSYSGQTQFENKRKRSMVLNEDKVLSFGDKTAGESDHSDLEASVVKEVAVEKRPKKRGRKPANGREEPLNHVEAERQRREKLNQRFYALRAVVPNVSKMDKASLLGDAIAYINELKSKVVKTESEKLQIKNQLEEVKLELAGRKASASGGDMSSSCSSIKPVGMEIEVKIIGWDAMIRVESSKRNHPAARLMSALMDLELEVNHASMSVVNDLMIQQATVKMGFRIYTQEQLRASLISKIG

MBP-PUB11 (C247A)-myc
in vitro ubiquitination of MYC2 (E1, E2, Ub; Western blot): MBP-PUB11 (C247A)-myc mutant protein has no E3 activity for GST-MYC-HA
